From patent US11015206B2, “Compositions and methods comprising sequences having hydroxyphenylpyruvate dioxygenase (HPPD) activity” (PIONEER HI-BRED INTERNATIONAL, INC., priority 2014, dated 2021)
Positions count from the first letter of the chain named. Numbers in names are those of the source.

B1: 356R: single substitution E356R in SEQ ID NO:2 (protein)
chain: MGPTPTATAAGAAVAAASAAEQAAFRLVGHRNFVRFNPRSDRFQTLAFHHVELWCADAASAAGRFSFALGVPLAARSDLSTGNSAHASLLLRSGSLSLLFTAPYAHGADAATAALPSFSAAAARRFAADHGLAVRAVALRVADAEDAFRASVAAGARPAFGPVDLGRGFRLAEVELYGDVVLRYVSYPDGAAGEPFLPGFEGVASPGAADYGLSRFDHIVGNVPELAPAAAYMAGFTGFHEFAEFTTEDVGTTESGLNSMALANNSENVLLPLNEPVHGTKRRSQIQTFLDHHGGPGVQHIALASDDVLRTLREMRARSAMGGFEFLPPPLSDYYDGVRRCAGDVLTEAQINECQRLGVMVDRDDQGVLLQIFTKPVGDRPTFFLEIIQRIGCMEKDEKGQEYQKGGCGGFGKGNFGQLFKSIEDYEKSLEAKQAAAAATAQGS
modifications: Zea mays variant form created by artificial means.
B2: 356K: single substitution E356K in SEQ ID NO:2 (protein)
chain: B1 chain with R356K
modifications: Zea mays variant form created by artificial means.
B3: 434R: single substitution Q434R in SEQ ID NO:2 (protein)
chain: B1 chain with R356E, Q434R
modifications: Zea mays variant form created by artificial means.
B4: 211L: single substitution Y211L in SEQ ID NO:2 (protein)
chain: B1 chain with Y211L, R356E
modifications: Zea mays variant form created by artificial means.
B5: 387L: single substitution I387L in SEQ ID NO:2 (protein)
chain: B1 chain with R356E, I387L
modifications: Zea mays variant form created by artificial means.
B6: 340K: single substitution R340K in SEQ ID NO:2 (protein)
chain: B1 chain with R340K, R356E
modifications: Zea mays variant form created by artificial means.

tested on: 4-hydroxyphenylpyruvate dioxygenase (HPPD); assay: HPPD activity coupled assay with HGD; substrate saturation kinetic parameters (kcat, KM); type: biochemical, Z. mays; conditions: Table 6
Description: Wild type and shuffled variant genes were cloned into pVER7062, a modified version of pET24a(+)(Novagen), which places six histidine residues at the N-terminus of the expressed protein. Vectors were electroporated into E. coli host strain BL21(DE3). Cells were grown at 30 C in rich medium such as 2×YT containing the selection antibiotic, kanamycin. At a density of about 0.6 OD600, IPTG was added to 0.2 mM, the temperature was reduced to 16 C and growth continued for another 24 hrs. Cells were harvested by centrifugation and stored at −80 C. Cell pellets were lysed in BPER (Pierce) protein extraction reagent containing 0.2 mg/ml lysozyme, 1 mM dithiothreitol, protease inhibitor cocktail (Sigma, bacterial cocktail) and endonuclease. Insoluble cellular debris was removed by centrifugation. HPPD protein was purified from the soluble protein solution by affinity chromatography on the nickel form of nitrilotriacetic acid (Ni-NTA) resin (Qiagen). Protein concentrations were determined by the Bradford method, as supplied by Bio-Rad.
HPPD catalyzes the conversion of 4-hydroxyphenylpyruvate (HPP) to homogentisate (FIG. 17). […] However, the product of the ensuing reaction in tyrosine metabolism, maleylacetoacetate, absorbs strongly at 320 nm. Furthermore, the enzyme catalyzing that reaction is also a dioxygenase having similar mechanism and buffer requirements as HPPD, making homogentisate dioxygenase (HGD) an ideal partner in a coupled assay, as shown.
The HDG gene from Pseudomonas aeruginosa (Amaya (2004) Arch Biochem Biophys 421, 135-142) was cloned into pVER7062 and electroporated into E. coli strain BL21(DE3). The enzyme was produced by methods similar to those described for HPPD. The purified enzyme has a KM for homogentisate of 23 μM and a kcat of 100/sec, properties highly suited for instantly converting the homogentisate produced by HPPD to maleylacetoacetate.
HPPD activity was measured by placing an aliquot (e.g., 6 μl) of the substrate HPP at 50-fold the desired final concentration into the wells of a low UV-absorbing assay plate. Reactions were started by adding a mixture (e.g., 294 μl) containing 25 mM Hepes, pH 7, 2 mM ascorbate, 10 μM FeSO4, 1 to 100 μM HPP, 50 nM HGD and 5 to 240 nM HPPD. Absorbance at 320 nm was monitored continuously in a plate-reading spectrophotometer (Spectramax, Molecular Devices).
The catalytic performance of wild-type HPPD and variants generated by shuffling was assessed by determining the substrate saturation kinetic parameters. The Michaelis-Menten kinetics protocol of the Spectramax software was customized for HPP concentrations ranging from 3.33 μM to 100 μM. Reaction rates were measured as described above for each concentration of HPP. The software returns values of KM and Vmax using the Lineweaver-Burke transformation of the Michaelis-Menten equation.

| Molecule | Km |
| --- | --- |
| B1 | 2.89 µM |
| B2 | 2.6 µM |
| B3 | 2.74 µM |
| B4 | 3.2 µM |
| B5 | 2.46 µM |
| B6 | 2.41 µM |

same assay, conditions: Table 6; single substitutions in SEQ ID NO:2

| Molecule | kcat |
| --- | --- |
| B1 | 1.32 s⁻¹ |
| B2 | 1.1 s⁻¹ |
| B3 | 1.35 s⁻¹ |
| B4 | 1.29 s⁻¹ |
| B5 | 1.24 s⁻¹ |
| B6 | 1.22 s⁻¹ |

tested on: 4-hydroxyphenylpyruvate dioxygenase (HPPD); assay: ON rate ratio: HPPD reaction rate with vs without inhibitor in the 70 to 90 second interval; type: biochemical, Z. mays; conditions: Table 5; tembotrione
Procedure, shortened: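 Indicator of inhibitor on-rate: reaction velocity in the 70 to 90 second window with 4 μM inhibitor divided by that without. Reactions contained 100 μM HPP and 60 or 120 nM HPPD; slower binding gives a larger ratio.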

| Molecule | ON ratio (parameters with tembotrione) |
| --- | --- |
| B1 | 0.75 |
| B2 | 0.75 |
| B3 | 0.73 |
| B4 | 0.77 |
| B5 | 0.75 |
| B6 | 0.75 |

tested on: 4-hydroxyphenylpyruvate dioxygenase (HPPD); assay: OFF rate ratio: release of inhibitor from pre-formed enzyme-inhibitor complex; type: biochemical, Z. mays; conditions: Table 5; tembotrione
Procedure, shortened: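 Inhibitor release from pre-formed complex (enzyme 7.2 μM, inhibitor 8 μM, 1 h RT) tracked as accelerating HPPD activity at 320 nm over 12 min, coupled via 50 nM HGD with 100 μM HPP at pH 7. OFF rate ratio: steady-state velocity relative to uninhibited initial velocity.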

| Molecule | OFF ratio (parameters with tembotrione) |
| --- | --- |
| B1 | 0.21 |
| B2 | 0.21 |
| B3 | 0.15 |
| B4 | 0.17 |
| B5 | 0.19 |
| B6 | 0.20 |

tested on: 4-hydroxyphenylpyruvate dioxygenase (HPPD); assay: Insensitivity parameter (ON × OFF) and trait fitness (ON × OFF × kcat/KM or × kcat); type: biochemical, Z. mays; conditions: DKN (diketonitrile form of isoxaflutole)
Procedure, shortened: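 Trait fitness combines catalysis and insensitivity as kcat/KM × ON rate ratio × OFF rate ratio. The insensitivity parameter is the product of ON and OFF rate ratios, used in place of KD because the ON rate ratio is inverse.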

| Molecule | Insensitivity parameter, ON × OFF |
| --- | --- |
| B1 | 0.21 |
| B2 | 0.25 |
| B3 | 0.18 |
| B4 | 0.25 |
| B5 | 0.26 |
| B6 | 0.23 |

same assay, conditions: DKN (isoxaflutole diketonitrile)

| Molecule | ON × OFF × kcat/km fold vs Round 7, variant 9070 |
| --- | --- |
| B1 | 1.1 |
| B2 | 1.1 |
| B3 | 1.1 |
| B4 | 1.1 |
| B5 | 1.6 |
| B6 | 2.2 |

same assay, conditions: Mesotrione; Table 6

| Molecule | Insensitivity parameter, ON × OFF |
| --- | --- |
| B1 | 0.44 |
| B2 | 0.48 |
| B3 | 0.39 |
| B4 | 0.37 |
| B5 | 0.46 |
| B6 | 0.44 |

same assay, conditions: Sulco (sulcotrione)

| Molecule | ON × OFF × kcat/km fold vs Round 7, variant 9070 |
| --- | --- |
| B1 | 1.1 |
| B2 | 1.1 |
| B3 | 1.1 |
| B4 | 0.9 |
| B5 | 1.3 |
| B6 | 1.3 |

same assay, conditions: Sulcotrione

| Molecule | Insensitivity parameter, ON × OFF |
| --- | --- |
| B1 | 0.53 |
| B2 | 0.55 |
| B3 | 0.47 |
| B4 | 0.47 |
| B5 | 0.56 |
| B6 | 0.54 |

same assay, conditions: Table 5; tembotrione

| Molecule | ON × OFF × kcat, Value |
| --- | --- |
| B1 | 5.97 |
| B2 | 6.18 |
| B3 | 5.63 |
| B4 | 4.72 |
| B5 | 4.58 |
| B6 | 6.56 |

same assay, conditions: Table 5; tembotrione; fold vs maize wild type HPPD

| Molecule | ON × OFF × kcat, Fold vs wt | ON × OFF, fold vs wt |
| --- | --- | --- |
| B1 | 5.58 | 30.0 |
| B2 | 5.78 | 31.2 |
| B3 | 5.26 | 21.2 |
| B4 | 4.41 | 25.0 |
| B5 | 4.28 | 27.0 |
| B6 | 6.13 | 28.7 |

same assay, conditions: Table 5; tembotrione; insensitivity parameter

| Molecule | ON × OFF (parameters with tembotrione) |
| --- | --- |
| B1 | 0.15 |
| B2 | 0.16 |
| B3 | 0.11 |
| B4 | 0.13 |
| B5 | 0.14 |
| B6 | 0.15 |

same assay, conditions: Tembotrione

| Molecule | Insensitivity parameter, ON × OFF |
| --- | --- |
| B1 | 0.16 |
| B2 | 0.18 |
| B3 | 0.15 |
| B4 | 0.22 |
| B5 | 0.15 |
| B6 | 0.16 |

same assay, conditions: Topra (topramezone)

| Molecule | ON × OFF × kcat/km fold vs Round 7, variant 9070 |
| --- | --- |
| B1 | 1.1 |
| B2 | 0.9 |
| B3 | 1.1 |
| B4 | 1.1 |
| B5 | 1.0 |
| B6 | 1.1 |

same assay, conditions: Topramezon

| Molecule | Insensitivity parameter, ON × OFF |
| --- | --- |
| B1 | 0.24 |
| B2 | 0.23 |
| B3 | 0.22 |
| B4 | 0.27 |
| B5 | 0.21 |
| B6 | 0.22 |

same assay, conditions: meso (mesotrione)

| Molecule | ON × OFF × kcat/km fold vs Round 7, variant 9070 |
| --- | --- |
| B1 | 1.1 |
| B2 | 1.2 |
| B3 | 1.1 |
| B4 | 0.9 |
| B5 | 1.3 |
| B6 | 1.3 |

same assay, conditions: tembo (tembotrione)

| Molecule | ON × OFF × kcat/km fold vs Round 7, variant 9070 |
| --- | --- |
| B1 | 1.2 |
| B2 | 1.2 |
| B3 | 1.1 |
| B4 | 1.1 |
| B5 | 1.1 |
| B6 | 1.2 |

tested on: 4-hydroxyphenylpyruvate dioxygenase (HPPD); assay: Estimate of kcat from initial rate at saturating hydroxyphenylpyruvate without inhibitor (ON rate ratio assay); type: biochemical, Z. mays; conditions: Table 5; single substitutions in Round 7 variant 9070 (SEQ ID NO:2); estimate from initial rate at saturating hydroxyphenylpyruvate without inhibitor
Procedure, shortened: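 kcat was estimated from the initial reaction rate with known enzyme level (60 or 120 nM HPPD). Hydroxyphenylpyruvate was at a saturating 100 μM, with no inhibitor present.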

| Molecule | kcat |
| --- | --- |
| B1 | 0.652 s⁻¹ |
| B2 | 0.647 s⁻¹ |
| B3 | 0.868 s⁻¹ |
| B4 | 0.615 s⁻¹ |
| B5 | 0.555 s⁻¹ |
| B6 | 0.745 s⁻¹ |
